Reference: PMC1762330, “‘Fractional Recovery’ Analysis of a Presynaptic Synaptotagmin 1-Anchored Endocytic Protein Complex” (PLoS ONE, 2006)

T1: AP180 (rat (endogenous in rat brain …, UniProt Q05140 1-915))
T1 construct: AP180 (clathrin coat assembly protein), endogenous in rat brain synaptosomes; source: endogenous, rat brain synaptosome lysate
T1 sequence (looked up): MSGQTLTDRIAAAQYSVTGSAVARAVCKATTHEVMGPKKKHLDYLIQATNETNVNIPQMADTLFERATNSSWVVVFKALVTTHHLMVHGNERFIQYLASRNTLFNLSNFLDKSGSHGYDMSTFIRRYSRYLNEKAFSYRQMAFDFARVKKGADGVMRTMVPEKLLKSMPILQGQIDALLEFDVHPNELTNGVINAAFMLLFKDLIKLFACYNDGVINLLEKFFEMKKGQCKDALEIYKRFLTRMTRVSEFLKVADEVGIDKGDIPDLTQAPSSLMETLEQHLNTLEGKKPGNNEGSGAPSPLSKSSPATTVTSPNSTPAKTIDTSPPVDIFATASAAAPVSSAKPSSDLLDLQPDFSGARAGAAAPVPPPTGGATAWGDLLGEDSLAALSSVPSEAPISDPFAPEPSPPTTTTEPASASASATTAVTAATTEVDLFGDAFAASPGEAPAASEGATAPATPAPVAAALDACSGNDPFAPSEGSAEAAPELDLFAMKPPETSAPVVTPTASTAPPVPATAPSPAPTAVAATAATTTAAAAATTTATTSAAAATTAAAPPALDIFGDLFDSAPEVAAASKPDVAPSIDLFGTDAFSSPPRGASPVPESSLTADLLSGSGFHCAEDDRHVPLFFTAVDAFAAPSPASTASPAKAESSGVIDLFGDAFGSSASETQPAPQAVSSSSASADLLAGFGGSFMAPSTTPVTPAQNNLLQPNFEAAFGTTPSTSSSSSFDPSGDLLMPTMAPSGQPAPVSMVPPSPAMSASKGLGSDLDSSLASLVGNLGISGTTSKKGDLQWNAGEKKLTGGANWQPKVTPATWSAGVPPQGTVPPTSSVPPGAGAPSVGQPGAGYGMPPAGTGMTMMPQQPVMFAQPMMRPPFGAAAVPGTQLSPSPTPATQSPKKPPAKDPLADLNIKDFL

B1: synaptotagmin 1 (natural protein, UniProt P21707 1-421, looked up)
chain: MVSASHPEALAAPVTTVATLVPHNATEPASPGEGKEDAFSKLKQKFMNELHKIPLPPWALIAIAIVAVLLVVTCCFCVCKKCLFKKKNKKKGKEKGGKNAINMKDVKDLGKTMKDQALKDDDAETGLTDGEEKEEPKEEEKLGKLQYSLDYDFQNNQLLVGIIQAAELPALDMGGTSDPYVKVFLLPDKKKKFETKVHRKTLNPVFNEQFTFKVPYSELGGKTLVMAVYDFDRFSKHDIIGEFKVPMNTVDFGHVTEEWRDLQSAEKEEQEKLGDICFSLRYVPTAGKLTVVILEAKNLKKMDVGGLSDPYVKIHLMQNGKRLKKKKTTIKKNTLNPYYNESFSFEVPFEQIQKVQVVVTVLDYDKIGKNDAIGKVFVGYNSTGAELRHWSDMLANPRRPIAQWHTLQVEEEVDAMLAVKK
notes: synaptotagmin 1, endogenous in synaptosomes from brains of 2-10 day old Sprague Dawley rats; also called STG; STG 1; source: endogenous, rat brain synaptosome lysate
B2: stonin2 (natural protein, UniProt D4AB66 1-895, looked up)
chain: MTTLDHVIATHQSEWVSFSEEPLFPTPLEGGTEEHFPGLSSSSDRSESSSGENHAVDEGSQDLSHSEQDDSSEKMGLISEAASPPGSPVQPTPDLASAISNWVQFEDDTPWSNTSAPHKETALTLTVPCWTCPSLDSLRRCPLASESSWTTHSEDTSSPSVAPSYTDLQLINAEEQASGRASGTDSTDNSSSLQEDEEVEMETISWWAGSPAMNGHPAVPQVTTARFPSWVTFEDNEVGCPSPTVPSPKKPNAPSAATAGPDVPFNSTGSFKRDRPKSTLMNLSKVQKLDISSLNRPPSVTEAPPWRATNPFLNESLQDIQPSPINPFSAFFEEQERRSQNSSISGTSGKSQRDSLIVIYQDAISFDDSGKSQSHPDAIEKLKQLQIDDPDPVGNAALPDDDPTASVEPDAPSPTSALSQPRDGWPMMLRIPEKKNIMSSRHWGPIYIKLTDSGYLQLYYEQGLEKPFREFKLEICHEVSEPRLQNYDENGRIHSLRIDRVTYKEKKKYQPKPAVAHAAEREQVIKLGTTNYDDFLSFIHAVQDRLMDLPVQSMDLSTVGLNYLEEEITVDIRDEFSGTVSKGDNQILQHHVLTRIHILSFLSGLAECRLGLNDILIKGNEIVSRQDIMPTTTTKWIKLHECRFHGCVDEDVFNSSRVILFNPLDACRFELMRFRTVFAEKTLPFTLRTAASINGAEVEVQSWLRMSPGFSSNRDPLTQVPCENVMVRYPVPSEWVKNFRRESVLGEKSLKAKVNRGASFGSAGASGSEPVMRVTLGTAKYEHAFNSIVWRINRLPDKNSASGHPHCFFCHLELGSDREVPSRFANHVNVEFSMPTTSASKAAVRSISVEDKPDVRKWVNYSAHYSYKVEIEQKKSLKPDFEGEDLENPKECGVQ
notes: stonin 2, endogenous in rat brain synaptosomes; source: endogenous, rat brain synaptosome lysate
B3: short-variant intersectin (natural protein, UniProt Q9WVE9-1 1-1217, looked up)
chain: MAQFPTPFGGSLDIWAITVEERAKHDQQFQSLKPISGFITGDQARNFFFQSGLPQPVLAQIWALADMNKDGRMDQVEFSIAMKLIKLKLQGYQLPPALPPVMKQQPAAISSAPAFGIGGMAGMPPLTAVAPVPMGSIPVVGMSPPLVSSVPQAAVPPLANGAPPVIQPLPAFAHPAATLPKSSSFSRSGPGSQLNTKLQKAQSFDVASAPAAAEWAVPQSSRLKYRQLFNSHDKTMSGHLTGPQARTILMQSSLPQAQLASIWNLSDIDQDGKLTAEEFILAMHLIDVAMSGQPLPPVLPPEYIPPSFRRVRSGSGMSVISSSSADQRLPEEPSSEDEQQVEKKLPVTFEDKKRENFERGNLELEKRRQALLEQQRKEQERLAQLERAEQERKERERQEQERKRQLELEKQLEKQRELERQREEERRKEIERREAAKRELERQRQLEWERNRRQELLTQRNKDQEGIVVLKARRKTLEFELEALNDKKHQLEGKLQDIRCRLATQRQEIESTNKSRELRIAEITHLQQQLQESQQMLGRLIPEKQILSDQLKQVQQNSLHRDSLLTLKRALEAKELARQQLREQLDEVEKETRSKLQEIDVFNNQLKELREIHSKQQLQKQRSIEAERLKQKEQERKSLELEKQKEEGQRRVQERDKQWQEHVQQEEQQRPRKPHEEDKLKREDSVKKKEAEERAKPEVQDKQSRLFHPHQEPAKPAQAPWPTTEKGPLTISAQESAKVVYYRALYPFESRSHDEITIQPGDIVMVKGEWVDESQTGEPGWLGGELKGKTGWFPANYAEKIPENEIPTPAKPVTDLTSAPAPKLALRETPAPLPVTSSEPSTTPNNWADFSSTWPSSTNEKPETDNWDTWAAQPSLTVPSAGQLRQRSAFTPATATGSSPSPVLGQGEKVEGLQAQALYPWRAKKDNHLNFNKSDVITVLEQQDMWWFGEVQGQKGWFPKSYVKLISGPVRKSTSIDTGPTEAPSSLKRVASPAAKPAIPGEEFVAMYTYESSEHGDLTFQQGDVIVVTKKDGDWWTGTVGETSGVFPSNYVRLKDSEGSGTAGKTGSLGKKPEIAQVIASYTATGPEQLTLAPGQLILIRKKNPGGWWEGELQARGKKRQIGWFPANYVKLLSPGTSKITPTELPKTAVQPAVCQVIGMYDYTAQNDDELAFSKGQIINVLSKEDPDWWKGEVSGQVGLFPSNYVKLTTDMDPSQQ
notes: intersectin (intersectin 1 by the antibody's name Intersectin/ESE-1), short variant, told from the long variant by the size of its band; endogenous in rat brain synaptosomes; they are told apart only as bands on the blot; not checked; also called S-intersectin; S-Int; source: endogenous, rat brain synaptosome lysate

Tests used:
Test in all cases: co-IP; fractional recovery: immunoprecipitate from rat brain synaptosome lysate on beads split in three aliquots, 15 min on ice in RIPA buffer with 150, 650 or 1150 mM total salt; what stayed on the beads found by Western blot and densitometry; FR = recovery at 1150 mM / recovery at 150 mM, normalised to the FR of the IP-protein
[1] = biological target: stonin2 (rat (endogenous in rat brain synaptosomes)) (UniProt D4AB66)
stonin2 = biological target: B2; details: partners not purified
AP180 = biological target: T1, AP180; details: partners not purified
heavy chain clathrin = biological target: T2, heavy chain clathrin (rat (endogenous in rat brain …, UniProt P11442 1-1675)); details: partners not purified
T2 construct: clathrin heavy chain, endogenous in rat brain synaptosomes; also called H-clathrin; H-Cl; source: endogenous, rat brain synaptosome lysate
T2 sequence (P11442 whole entry): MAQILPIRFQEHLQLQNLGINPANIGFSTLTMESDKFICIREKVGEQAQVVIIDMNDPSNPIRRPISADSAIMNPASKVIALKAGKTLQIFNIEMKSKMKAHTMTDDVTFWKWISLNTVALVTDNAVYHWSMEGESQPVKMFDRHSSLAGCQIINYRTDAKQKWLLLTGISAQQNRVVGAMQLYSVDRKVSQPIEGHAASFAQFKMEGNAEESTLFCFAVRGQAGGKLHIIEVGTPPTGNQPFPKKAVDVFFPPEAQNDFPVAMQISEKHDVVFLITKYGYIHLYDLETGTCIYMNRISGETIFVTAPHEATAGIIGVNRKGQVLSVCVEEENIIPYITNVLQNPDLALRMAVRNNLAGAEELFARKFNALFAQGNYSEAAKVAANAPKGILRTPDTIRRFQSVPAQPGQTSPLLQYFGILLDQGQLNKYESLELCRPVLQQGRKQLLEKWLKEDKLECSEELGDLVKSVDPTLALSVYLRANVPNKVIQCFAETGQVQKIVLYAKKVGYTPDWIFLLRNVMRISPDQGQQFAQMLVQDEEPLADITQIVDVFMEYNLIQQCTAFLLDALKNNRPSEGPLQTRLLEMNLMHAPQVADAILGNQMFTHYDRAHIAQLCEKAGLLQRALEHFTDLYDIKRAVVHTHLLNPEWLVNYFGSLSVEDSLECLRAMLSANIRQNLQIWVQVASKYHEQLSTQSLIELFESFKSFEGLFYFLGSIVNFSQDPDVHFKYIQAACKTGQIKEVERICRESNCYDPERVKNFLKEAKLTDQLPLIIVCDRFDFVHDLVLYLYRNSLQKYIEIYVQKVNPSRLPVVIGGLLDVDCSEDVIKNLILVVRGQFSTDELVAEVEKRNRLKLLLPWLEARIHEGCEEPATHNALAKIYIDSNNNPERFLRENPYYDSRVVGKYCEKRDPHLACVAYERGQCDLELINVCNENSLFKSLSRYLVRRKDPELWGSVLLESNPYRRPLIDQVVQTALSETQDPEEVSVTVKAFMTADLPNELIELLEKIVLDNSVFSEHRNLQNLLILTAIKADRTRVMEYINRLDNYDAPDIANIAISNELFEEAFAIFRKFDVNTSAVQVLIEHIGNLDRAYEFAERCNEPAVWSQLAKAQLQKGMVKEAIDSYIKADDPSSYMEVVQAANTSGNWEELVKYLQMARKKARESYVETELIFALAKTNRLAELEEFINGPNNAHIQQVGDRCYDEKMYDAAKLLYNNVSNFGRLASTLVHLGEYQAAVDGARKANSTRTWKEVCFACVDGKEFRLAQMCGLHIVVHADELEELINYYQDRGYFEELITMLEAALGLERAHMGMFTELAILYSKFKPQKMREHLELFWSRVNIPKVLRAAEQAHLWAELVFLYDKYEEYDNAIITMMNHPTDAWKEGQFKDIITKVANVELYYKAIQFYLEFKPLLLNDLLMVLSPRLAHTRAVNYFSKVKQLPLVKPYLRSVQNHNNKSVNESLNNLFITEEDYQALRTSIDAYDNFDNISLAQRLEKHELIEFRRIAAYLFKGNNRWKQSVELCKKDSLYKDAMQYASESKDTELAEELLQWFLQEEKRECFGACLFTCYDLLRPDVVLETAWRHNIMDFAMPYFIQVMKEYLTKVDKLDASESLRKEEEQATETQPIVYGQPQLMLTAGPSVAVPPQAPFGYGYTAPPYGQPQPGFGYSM

Molecule	fractional recovery (FR; recovery at 1150 mM salt / recovery at 150 mM salt) [1]	fractional recovery (FR; recovery at 1150 mM salt / recovery at 150 mM salt) (stonin2)	other results
light chain clathrin (from UniProt P08081 1-248) (natural protein)	0.84	–	–
long-variant intersectin (natural protein)	1	–	–
B1	–	0.98	–
B2	–	–	fractional recovery (FR; recovery at 1150 mM salt / recovery at 150 mM salt) (AP180): 1 ± 0.17; fractional recovery (FR; recovery at 1150 mM salt / recovery at 150 mM salt) (heavy chain clathrin): 0.78
B3	–	0.83	–
